Measured values from paper PMC9057628.

Assays:
[1] = target: recombinant full-length human TTRV122I with N-terminal AviTag (human) (UniProt P02766); test: SEC; time series: TTR in 1M urea pH 7.6 at room temperature on a rotating platform for 1 hour to 7 days; oligomers between 200 and 600 kDa; also with 100 uM H2O2 or 5 mM DTT
[2] = target: recombinant full-length human TTRWT with N-terminal AviTag (human) (UniProt P02766); test: as above

stoichiometry N (protein subunits) [1]	stoichiometry N (protein subunits) [2]	Substance
15		recombinant full-length human TTRV122I with N-terminal AviTag (from UniProt P02766 21-147) (natural protein)
	10	recombinant full-length human TTRWT with N-terminal AviTag (from UniProt P02766 21-147) (natural protein)
